Measurements as given in IntAct's records for PubMed 21471201.

B1: NAD-dependent protein deacetylase sirtuin-1 (Homo sapiens), Q96EB6 (parent)
chain: MADEAALALQPGGSPSAAGADREAASSPAGEPLRKRPRRDGPGLERSPGEPGGAAPEREVPAAARGCPGAAAAALWREAEAEAAAAGGEQEAQATAAAGEGDNGPGLQGPSREPPLADNLYDEDDDDEGEEEEEAAAAAIGYRDNLLFGDEIITNGFHSCESDEEDRASHASSSDWTPRPRIGPYTFVQQHLMIGTDPRTILKDLLPETIPPPELDDMTLWQIVINILSEPPKRKKRKDINTIEDAVKLLQECKKIIVLTGAGVSVSCGIPDFRSRDGIYARLAVDFPDLPDPQAMFDIEYFRKDPRPFFKFAKEIYPGQFQPSLCHKFIALSDKEGKLLRNYTQNIDTLEQVAGIQRIIQCHGSFATASCLICKYKVDCEAVRGDIFNQVVPRCPRCPADEPLAIMKPEIVFFGENLPEQFHRAMKYDKDEVDLLIVIGSSLKVRPVALIPSSIPHEVPQILINREPLPHLHFDVELLGDCDVIINELCHRLGGEYAKLCCNPVKLSEITEKPPRTQKELAYLSELPPTPLHVSEDSSSPERTSPPDSSVIVTLLDQAAKSNDDLDVSESKGCMEEKPQEVQTSRNVESIAEQMENPDLKNVGSSTGEKNERTSVAGTVRKCWPNRVAKEQISRRLDGNQYLFLPPNRYIFHGAEVYSDSEDDVLSSSSCGSNSDSGTCQSPSLEEPMEDESEIEEFYNGLEDEPDVPERAGGAGFGTDGDDQEAINEAISVKQEVTDMNYPSNKS

Variants of: B1
Details: with rptor_human RPTOR

effect of a mutation on the interaction | Variant
decreasing interaction | F474A
